This experiment concerns the target T1, human TNFα N-his trimer (human, UniProt P01375 77-233).
T1 construct: Captured on an NTA sensor chip through the N-terminal His tag for Biacore; also called His-tagged TNF (made by ESBATech); not shown: N-terminal His tag
Briefly: SPR (BIAcore T100), His-tagged TNFα captured on an NTA chip, scFv as analyte.

These results are taken from KR20210097819A (dated 2021).

T1 sequence (P01375 77-233 limits assumed): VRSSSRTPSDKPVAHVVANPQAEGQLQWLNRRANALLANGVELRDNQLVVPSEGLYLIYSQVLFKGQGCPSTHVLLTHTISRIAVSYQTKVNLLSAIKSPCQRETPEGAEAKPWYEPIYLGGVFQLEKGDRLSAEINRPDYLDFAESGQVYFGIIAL

B1: EP43max (scFv)
chain: EIVMTQSPSTLSASVGDRVIIKCQASQSISDWLAWYQQKPGKAPKLLIYGASRLASGFPSRFSGSGSGAEFTLTISGLEPADFATYYCQQGWSDSYVDNLFGQGTKLTVLGGGGGSGGGGSGGGGSGGGGSEVQLVESGGGLVQPGGSLRLSCTVSGFSLSSGAMSWVRQAPGKGLEWVGVIISSGATYYASWAKGRFTISKDTSKNTVYLQMNSLRAEDTAVYYCARGGPDDSNSMGTFDPWGQGTLVTVSS
Turning to B1, the affinity, expressed as Kd, was 0.25 nM.
